B1: sybody 27 (VHH)
VHH: QVQLVESGGGSVQAGGSLRLSCAASGDIETIWYLGWFRQAPGKEREGVAALSTVTGSTYYADSVKGRFTVSLDNAKNTVYLQMNSLKPEDTALYYCAAAYTGWMAPLWQWVYSYWGQGTQVTVSA

For orientation: Kd means the free concentration of one partner at which half of the binding sites on the other are occupied at equilibrium, for simple one-to-one binding. Higher therefore signals lower affinity.

Chain of chicken PHT1 (purified, wild type) (chain, as listed by the source): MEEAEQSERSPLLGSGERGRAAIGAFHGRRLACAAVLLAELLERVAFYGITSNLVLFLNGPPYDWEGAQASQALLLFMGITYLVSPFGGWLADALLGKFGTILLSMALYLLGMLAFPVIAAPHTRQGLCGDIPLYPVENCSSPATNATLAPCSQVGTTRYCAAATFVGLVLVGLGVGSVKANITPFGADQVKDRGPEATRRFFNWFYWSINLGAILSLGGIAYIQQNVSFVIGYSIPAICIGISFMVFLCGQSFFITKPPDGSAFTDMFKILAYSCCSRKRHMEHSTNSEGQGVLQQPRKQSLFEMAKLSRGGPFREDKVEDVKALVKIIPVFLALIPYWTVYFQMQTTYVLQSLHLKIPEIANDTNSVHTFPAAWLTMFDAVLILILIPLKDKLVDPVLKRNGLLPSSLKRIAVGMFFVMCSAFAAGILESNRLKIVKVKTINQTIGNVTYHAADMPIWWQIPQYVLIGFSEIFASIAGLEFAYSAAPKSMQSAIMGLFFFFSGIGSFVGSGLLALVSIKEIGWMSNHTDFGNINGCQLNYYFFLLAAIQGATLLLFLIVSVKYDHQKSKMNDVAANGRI
Chain of biotinylated chicken PHT1 (BLI sample) (chicken) (A6QQL0 other isoform, or with tags, fused parts or gaps): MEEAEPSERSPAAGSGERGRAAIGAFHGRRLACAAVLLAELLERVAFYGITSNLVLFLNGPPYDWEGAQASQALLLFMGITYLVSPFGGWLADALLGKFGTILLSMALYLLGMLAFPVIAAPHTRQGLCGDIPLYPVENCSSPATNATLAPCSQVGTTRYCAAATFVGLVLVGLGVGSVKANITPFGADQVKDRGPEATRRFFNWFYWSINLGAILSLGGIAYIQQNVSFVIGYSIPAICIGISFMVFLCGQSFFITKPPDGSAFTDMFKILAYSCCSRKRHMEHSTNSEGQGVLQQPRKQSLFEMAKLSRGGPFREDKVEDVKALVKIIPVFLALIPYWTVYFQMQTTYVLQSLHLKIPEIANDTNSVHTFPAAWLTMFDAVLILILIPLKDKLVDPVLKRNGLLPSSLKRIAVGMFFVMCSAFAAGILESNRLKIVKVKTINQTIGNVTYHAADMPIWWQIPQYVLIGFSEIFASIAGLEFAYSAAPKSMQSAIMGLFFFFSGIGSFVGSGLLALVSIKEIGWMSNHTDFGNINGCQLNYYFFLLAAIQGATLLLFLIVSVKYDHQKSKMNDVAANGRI

One assay addresses chicken PHT1 (purified, wild type). Briefly: thermal stability (thermal shift) of PHT1 with TASL peptides. Conditions: chain shown with the change; peptide concentration 50 µM; parent: est. 13.6; read off a plot.
For MLSAGYLYRIAYL [TASL_(1-13) peptide E4A], the other: ΔTm is 0.45 Kelvin.
For MLAEGYLYRIAYL [TASL_(1-13) peptide S3A], the other: ΔTm was 13 Kelvin.
On to MLSEGYLARIAYL [TASL_(1-13) peptide Y8A], for which the other: ΔTm stood at 9.9 Kelvin.
With MLSEGALYRIAYL [TASL_(1-13) peptide Y6A], the other: ΔTm came to 11 Kelvin.
With ALSEGYLYRIAYL [TASL_(1-13) peptide M1A], the other: ΔTm came out at 5.1 Kelvin.
Still for that read-out and setting: the same measure for MASEGYLYRIAYL [TASL_(1-13) peptide L2A]: 5.6 Kelvin; for MLSEGYLYAIAYL [TASL_(1-13) peptide R9A]: 6.9 Kelvin.
Turning to MLSEGYAYRIAYL [TASL_(1-13) peptide L7A], the other: ΔTm was found to be 13 Kelvin.

The same assay, now with this note: chain shown with the change; peptide concentration 50 µM; read off a plot.
On to MLSEGYLYRIAYLA [TASL peptide with a length of 14 residues C14A], for which the other: ΔTm amounted to 15 Kelvin.

A further assay concerns the target biotinylated chicken PHT1 (BLI sample) (chicken). Briefly: BLI; biotinylated PHT1 on streptavidin biosensors; Sb27 6-800 nM; 22 °C; 50 mM HEPES pH 7.5, 100 mM NaCl, 0.02% DDM/0.004% CHS, 0.5% BSA; 1:1 binding model.
Conditions: not given
(Biolayer interferometry detects binding as a change in optical thickness at a sensor tip.)
With B1, the dissociation constant Kd amounted to 400 nM. In other words, the sub-micromolar range.
